{"source": "patent US20170157212", "test_system": "purified recombinant CRIF1", "data": [{"substance": "HA-tagged full-length human CDK12", "values": [{"measurement": "CDK12-mediated phosphorylation of the human GST-CTD substrate in vitro (immunoblot, CTD-Ser2P)", "value": "recombinant CRIF1 potently inhibited CDK12-mediated phosphorylation of the human GST-CTD substrate in vitro, in a dose-dependent manner"}, {"measurement": "S65 and T70 phosphorylation of recombinant 4E-BP1 in vitro (reactions with CDK12 and mTORC1/Raptor)", "value": "rCRIF1 potently and selectively inhibited S65 and T70 phosphorylation of 4E-BP1 in vitro, in a dose-dependent manner, without affecting phosphorylation of the T37/46 sites by mTORC1"}]}]}
